Experimental data as given in patent US20250277048A1 (Regeneron, published 2025).

T1: mouse CD40 extracellular domain expressed with a C-terminal myc-myc-hexahistidine tag (mouse)
T1 construct: also called mCD40-MMH; REGN3098
T1 chain: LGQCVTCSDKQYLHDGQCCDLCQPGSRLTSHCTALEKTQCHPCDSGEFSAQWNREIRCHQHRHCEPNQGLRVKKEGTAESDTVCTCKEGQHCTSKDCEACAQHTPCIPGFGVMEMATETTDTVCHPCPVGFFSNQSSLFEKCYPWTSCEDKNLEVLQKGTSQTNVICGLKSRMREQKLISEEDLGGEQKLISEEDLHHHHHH

B1: 30027P2 (antibody, human IgG4 S228P, kappa, V domains shown)
VH: EVQLVESGGGLVQPGGSLRLSCAASGFTFSSYAMNWVRQAPGKGLEWVSIISGTIGKTYYADSVKGRFTISRDNSKNTLYLQMNSLRGEDTAVYYCAKDTERDITGSPFDYWGQGTLVTVSS
VL: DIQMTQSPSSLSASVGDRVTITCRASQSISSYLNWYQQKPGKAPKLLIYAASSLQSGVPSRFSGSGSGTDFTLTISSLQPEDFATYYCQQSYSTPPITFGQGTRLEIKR
notes: parental bivalent anti-CD40 mAb; common light chain; also called H4sH30027P2
B2: REGN16431 (bispecific antibody, human IgG4 S228P, kappa)
heavy 1: QLQLQESGPGLVRPSETLSLTCSVSGASMNTNNYYWGWIRQPPGKGLEWIGSGYYNGNTYYNPSLKSRVTISVDTSKNQFSLKLNSVTAADTAVYYCARQTPPRIIGSPNIWGQGTMVTVSSASTKGPSVFPLAPCSRSTSESTAALGCLVKDYFPEPVTVSWNSGALTSGVHTFPAVLQSSGLYSLSSVVTVPSSSLGTKTYTCNVDHKPSNTKVDKRVESKYGPPCPPCPAPPVAGPSVFLFPPKPKDTLMISRTPEVTCVVVDVSQEDPEVQFNWYVDGVEVHNAKTKPREEQFNSTYRVVSVLTVLHQDWLNGKEYKCKVSNKGLPSSIEKTISKAKGQPREPQVYTLPPSQEEMTKNQVSLTCLVKGFYPSDIAVEWESNGQPENNYKTTPPVLDSDGSFFLYSRLTVDKSRWQEGNVFSCSVMHEALHNHYTQKSLSLSLGK
heavy 2: EVQLVESGGGLVQPGGSLRLSCAASGFTFGSYGMAWVRQAPGKGLEWVSAISGSGDYTNYADSVKRRFTISRDNSKNTLYLQMSSLRAEDTAVYYCAKEKTGTTGYLYSGMDVWGQGTTVTVSSASTKGPSVFPLAPCSRSTSESTAALGCLVKDYFPEPVTVSWNSGALTSGVHTFPAVLQSSGLYSLSSVVTVPSSSLGTKTYTCNVDHKPSNTKVDKRVESKYGPPCPPCPAPPVAGPSVFLFPPKPKDTLMISRTPEVTCVVVDVSQEDPEVQFNWYVDGVEVHNAKTKPREEQFNSTYRVVSVLTVLHQDWLNGKEYKCKVSNKGLPSSIEKTISKAKGQPREPQVYTLPPSQEEMTKNQVSLTCLVKGFYPSDIAVEWESNGQPENNYKTTPPVLDSDGSFFLYSRLTVDKSRWQEGNVFSCSVMHEALHNRFTQKSLSLSPGK
light: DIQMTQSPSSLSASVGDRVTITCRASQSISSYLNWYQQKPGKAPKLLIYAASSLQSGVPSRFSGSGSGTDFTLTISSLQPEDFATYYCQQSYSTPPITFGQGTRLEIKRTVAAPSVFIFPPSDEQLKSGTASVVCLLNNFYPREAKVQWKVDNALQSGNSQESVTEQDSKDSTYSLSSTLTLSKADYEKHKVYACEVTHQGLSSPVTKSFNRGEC
notes: D1 arm from 21519P2, D2 arm from 21520P2, common light chain; also called CD40xCD40 (21519 x 21520)
B3: REGN16432 (bispecific antibody, human IgG4 S228P, kappa)
heavy 1: EVQLVESGGGLVQPGGSLRLSCAASGFTFSSYAMNWVRQAPGKGLEWVSIISGTIGKTYYADSVKGRFTISRDNSKNTLYLQMNSLRGEDTAVYYCAKDTERDITGSPFDYWGQGTLVTVSSASTKGPSVFPLAPCSRSTSESTAALGCLVKDYFPEPVTVSWNSGALTSGVHTFPAVLQSSGLYSLSSVVTVPSSSLGTKTYTCNVDHKPSNTKVDKRVESKYGPPCPPCPAPPVAGPSVFLFPPKPKDTLMISRTPEVTCVVVDVSQEDPEVQFNWYVDGVEVHNAKTKPREEQFNSTYRVVSVLTVLHQDWLNGKEYKCKVSNKGLPSSIEKTISKAKGQPREPQVYTLPPSQEEMTKNQVSLTCLVKGFYPSDIAVEWESNGQPENNYKTTPPVLDSDGSFFLYSRLTVDKSRWQEGNVFSCSVMHEALHNHYTQKSLSLSLGK
heavy 2: B2 heavy 2
light: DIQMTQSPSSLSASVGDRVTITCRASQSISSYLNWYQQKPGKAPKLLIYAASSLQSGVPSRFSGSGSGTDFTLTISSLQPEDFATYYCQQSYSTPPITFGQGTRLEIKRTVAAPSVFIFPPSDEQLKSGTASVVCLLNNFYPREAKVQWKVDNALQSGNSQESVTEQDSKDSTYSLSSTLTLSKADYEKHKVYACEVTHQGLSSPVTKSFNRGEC
notes: D1 arm from 30027P2, D2 arm from 21520P2, common light chain; also called CD40xCD40 (30027 x 21520)
B4: 21520P2 (antibody, human IgG4 S228P, kappa, V domains shown)
VH: EVQLVESGGGLVQPGGSLRLSCAASGFTFGSYGMAWVRQAPGKGLEWVSAISGSGDYTNYADSVKRRFTISRDNSKNTLYLQMSSLRAEDTAVYYCAKEKTGTTGYLYSGMDVWGQGTTVTVSS
VL: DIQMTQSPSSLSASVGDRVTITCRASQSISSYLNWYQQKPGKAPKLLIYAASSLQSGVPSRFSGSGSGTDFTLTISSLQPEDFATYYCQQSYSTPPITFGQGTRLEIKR
notes: parental bivalent anti-CD40 mAb; common light chain; also called H4sH21520P2
B5: 21519P2 (antibody, human IgG4 S228P, kappa, V domains shown)
VH: QLQLQESGPGLVRPSETLSLTCSVSGASMNTNNYYWGWIRQPPGKGLEWIGSGYYNGNTYYNPSLKSRVTISVDTSKNQFSLKLNSVTAADTAVYYCARQTPPRIIGSPNIWGQGTMVTVSS
VL: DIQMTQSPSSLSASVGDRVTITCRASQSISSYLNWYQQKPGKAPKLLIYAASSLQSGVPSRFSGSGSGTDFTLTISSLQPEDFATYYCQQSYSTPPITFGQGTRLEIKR
notes: parental bivalent anti-CD40 mAb; common light chain; also called H4sH21519P2

target: T2, Macaca fascicularis CD40 (mfCD40) expressed on HEK293/D9/mfCD40 cells (Macaca fascicularis, UniProt G7PG38 21-278); experiment: flow cytometry, HEK293/D9/mfCD40 cells
T2 construct: whole, on cells; also called monkey CD40
Protocol: (§1) Cells were washed with 2% FBS (w/v) in 1×PBS (flow cytometry staining buffer) by centrifugation with benchtop Centrifuge 5810R (Eppendorf®, Hamburg, Germany). Cells were incubated for 30 minutes at 4° C. with serial dilutions of following antibodies ranging from 1.7 pM to 100 nM in flow cytometry staining buffer (1) anti-CD40×CD40 bispecific antibodies, or (2) parental anti-CD40 antibodies (bivalent antibodies comprising 2 fragment antigen-binding [Fab] arms identical to one of the two anti-CD40 Fab of bispecific anti-CD40×CD40 antibodies), or (3) anti-CD40×Irrelevant antibodies (bivalent antibodies that incorporate one Fab arm identical to one of anti-CD40 Fab of anti-CD40×CD40 antibodies and another Fab arm specific to an irrelevant antigen, i.e. birch pollen main allergen Bet v1), or (4) human IgG4 isotype control antibodies with Fc mutation. After washing, cell bound antibodies were detected with 2.5 μg/ml Allophycocyanin (APC)-conjugated goat anti-human IgG antibody specific for the Fcγ fragment (Jackson Immunoresearch, West Grove, PA) for 30 minutes at 4° C. Cells were washed and subsequently fixed with 50% solution of Cytofix™ Fixation Buffer (BD, Franklin Lakes, NJ) in flow cytometry staining buffer for 20 minutes at room temperature. Cells were washed and resuspended in flow cytometry staining buffer and stored at 4° C. for downstream flow cytometry analysis.
(§2) Acquisition of fluorescence signals were recorded on the ZE5 Cell Analyzer (Bio-Rad, Hercules, CA) according to the manufacturer's recommended procedure and flow cytometry data analysis was performed using the open-source R packages flowCore, flowStats, flowDensity, ggCyto, and flowAI. Multiplexed samples were deconvoluted and individual cell populations were identified based on their unique CellTrace™ fluorescence signature. APC Median Fluorescence intensity (MFI) was recorded to indicate the binding intensity of each antibody over a range of concentrations. Antibodies with MFI greater than 1500 at the highest tested concentration (100 nM) were classified as specific binders. In addition, direct binding signals (APC MFI) were analyzed as a function of the antibody concentration and data were fitted with a sigmoidal (four-parameter logistic) dose-response model using GraphPad Prism™ software.

EC50 [nM]	MFI at 100 nM [MFI]	Binder
1	33900	B1
8.4	43100	B2
2.1	48700	B3
3.7	24100	B4
10	11500	B5

target: T3, human CD40 (hCD40) expressed on cells (human, UniProt P25942 21-277); experiment: cell-based or functional assay
T3 sequence (P25942 21-277): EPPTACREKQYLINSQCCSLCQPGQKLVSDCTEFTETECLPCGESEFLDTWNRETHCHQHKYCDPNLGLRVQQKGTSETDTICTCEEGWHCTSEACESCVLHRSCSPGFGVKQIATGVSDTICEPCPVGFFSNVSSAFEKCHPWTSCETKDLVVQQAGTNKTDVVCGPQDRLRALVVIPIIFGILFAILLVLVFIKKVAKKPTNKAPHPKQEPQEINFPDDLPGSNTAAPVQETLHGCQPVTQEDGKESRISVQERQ

EC50 (potentiation), 500 pM hCD40L, Ramos NFkB-luc [M]	Max % activation, no ligand, Ramos NFkB-luc [%]	Max % inhibition, 500 pM hCD40L, Ramos NFkB-luc [%]	IC50, 500 pM hCD40L, Ramos NFkB-luc [M]	EC50, no ligand, Ramos NFkB-luc [nM]	IC50, 500 pM hCD40L, Ramos NFkB-luc (three highest concentrations excluded, hook effect) [M]	Binder
8.14e-12	8	-130	–	–	–	B1
–	6	90	8.54e-11	–	–	B2
–	4	94	4.92e-11	–	–	B3
–	49	63	–	> 10	8.06e-11	B4
–	13	88	3.09e-11	–	–	B5

target: T3, human CD40 (hCD40) expressed on cells; experiment: flow cytometry, Ramos 2G6.4C10 cells
Protocol: as §1, §2

EC50 [nM]	MFI at 100 nM [MFI]	Binder
0.45	2620	B1
1.9	3850	B2
1.1	3850	B3
0.8	2450	B4
1.5	2410	B5

target: T4, human CD40 extracellular domain expressed with a C-terminal myc-myc-hexahistidine tag (human); experiment: SPR Biacore 4000, mAb captured, 25C
T4 construct: also called hCD40-MMH; hCD40-mmH
Protocol: (§3) The equilibrium dissociation constants (KD) for anti-CD40 bivalent and bispecific monoclonal antibodies (mAbs) were determined using a real-time surface plasmon resonance (SPR)-based Biacore 4000 biosensor. All binding studies were performed in 10 mM HEPES, 150 mM NaCl, 3 mM EDTA, and 0.05% v/v surfactant Tween-20, pH 7.4 (HBS-ET) running buffer at 25° C. and 37° C. The Biacore CM5 sensor surface was first derivatized by amine coupling with a monoclonal mouse anti-human Fc antibody (REGN2567) to capture anti-CD40 bivalent parental and anti-CD40×CD40 bispecific antibodies. Different concentrations of CD40 reagents, human CD40 extracellular domain expressed with a C-terminal myc-myc-hexahistidine tag (SEQ ID NO: 1114) (“hCD40-MMH”; REGN3094; SEQ ID NO: 53), monkey CD40 extracellular domain expressed with a C-terminal myc-myc-hexahistidine tag (SEQ ID NO: 1114) (“mfCD40-MMH”; REGN3097; SEQ ID NO: 54), and mouse CD40 extracellular domain expressed with a C-terminal myc-myc-hexahistidine tag (SEQ ID NO: 1114) (“mCD40-MMH”; REGN3098; SEQ ID NO: 55), at concentrations ranging from 3.7 nM to 100 nM or 3.3 nM to 90 nM in a series of 3-fold dilutions prepared in HBS-ET running buffer were injected at a flow rate of 30 μL/min for 4 minutes or 50 μL/min for 5 minutes. The dissociation of different CD40 reagents bound to anti-CD40 bivalent parental and anti-CD40×CD40 bispecific antibodies was monitored for 10 minutes in HBS-ET running buffer. At the end of each cycle, the anti-CD40 bivalent parental and anti-CD40×CD40 bispecific antibodies capture surface was regenerated using a 12 sec injection of 20 mM H₃PO₄.
(§4) The association rate (ka) and dissociation rate (kd) were determined by fitting the real-time binding sensorgrams to a 1:1 binding model with mass transport limitation using Scrubber 2.0c curve-fitting software. Binding dissociation equilibrium constant (KD) and dissociative half-life (t_{1/2}) were calculated from the kinetic rates as: KD(M)=kd/kₐ, and t_{1/2} (min)=[ln(2)/(60*kd)].

100 nM Ag Bound [RU]	Kd [nM]	koff [s⁻¹]	kon [M⁻¹ s⁻¹]	t1/2 [min]	Binder
62	1.83	0.000998	546000	11.6	B1
61.2	0.101	0.000149	1.47e+06	77.5	B2
56.6	0.163	0.000125	769000	92.3	B3
76.6	25.1	0.0223	885000	0.5	B4
99	8.82	0.00339	–	3.4	B5

Target: T1, mouse CD40 extracellular domain …
Experiment: SPR Biacore 4000, mAb captured, 25C
Protocol: as §3, §4

100 nM Ag Bound [RU]	binding result	Binder
0.2	no binding (tested: 100 nM)	B1
-0.5	–	B4
0.4	no binding (tested: 100 nM)	B5

target: T3, human CD40 (hCD40) expressed on cells; experiment: cell-based or functional assay; remark: another data set of the same source

EC50 (potentiation), 10 nM hCD40L, THP-1 NFkB-luc [nM]	Max % activation, no ligand, THP-1 NFkB-luc [%]	Max % inhibition, 10 nM hCD40L, THP-1 NFkB-luc [%]	IC50, 10 nM hCD40L, THP-1 NFkB-luc [nM]	Binder
0.00251	2	-61	–	B1
–	2	98	0.287	B2
–	6	97	0.148	B3
–	1	97	0.437	B4
–	5	99	0.276	B5
